Results on one molecule are retold here after US20240226118A1 (US Dept. of Health and Human Services, published 2024).

For the test, the target named is T1, ATP1A1 genetically fused to yellow fluorescent protein (YFP) tag (human, UniProt P05023 1-1023).
T1 construct: Stood in lysates of RSV-infected H1299 ATP1A1-YFP cells and was pulled down with YFP-specific antibodies; The other subunits of the Na+,K+-ATPase complex may have been present; also called ATP1A1-YFP; ATPase Na+/K+ transporting subunit alpha 1; not shown: yellow fluorescent protein (YFP) tag
Nature of the test: co-immunoprecipitation.

B1: RSV attachment (G) glycoprotein (other)
chain: MSKNKDQRTAKTLERTWDTLNHLLFISSCLYKLNLKSVAQITLSILAMIISTSLIIAAIIFIASANHKVTPTTAIIQDATSQIKNTTPTYLTQNPQLGISPSNPSEITSQITTILASTTPGVKSTLQSTTVKTKNTTTTQTQPSKPTTKQRQNKPPSKPNNDFHFEVFNFVPCSICSNNPTCWAICKRIPNKKPGKKTTTKPTKKPTLKTTKKDPKPQTTKSKEVPTTKPTEEPTINTTKTNIITTLLTSNTTGNPELTSQMETFHSTSSEGNPSPSQVSTTSEYPSQPSSPPNTPRQ
notes: Viral protein in lysates of RSV-infected cells; also called RSV G
Regarding B1, the binding result is “no binding”.
